In US20230144608A1, “CLEAVABLE LINKERS” (Xilio Development, Inc., priority 2021, published 2023):

Legend:
MMP-2 = target: T1, MMP-2 (Homo sapiens, UniProt P08253); assay: Cleavage by recombinant protease MMP-2; type: biochemical; settings: initial rate, recombinant MMP-2
T1 sequence (P08253 110-660): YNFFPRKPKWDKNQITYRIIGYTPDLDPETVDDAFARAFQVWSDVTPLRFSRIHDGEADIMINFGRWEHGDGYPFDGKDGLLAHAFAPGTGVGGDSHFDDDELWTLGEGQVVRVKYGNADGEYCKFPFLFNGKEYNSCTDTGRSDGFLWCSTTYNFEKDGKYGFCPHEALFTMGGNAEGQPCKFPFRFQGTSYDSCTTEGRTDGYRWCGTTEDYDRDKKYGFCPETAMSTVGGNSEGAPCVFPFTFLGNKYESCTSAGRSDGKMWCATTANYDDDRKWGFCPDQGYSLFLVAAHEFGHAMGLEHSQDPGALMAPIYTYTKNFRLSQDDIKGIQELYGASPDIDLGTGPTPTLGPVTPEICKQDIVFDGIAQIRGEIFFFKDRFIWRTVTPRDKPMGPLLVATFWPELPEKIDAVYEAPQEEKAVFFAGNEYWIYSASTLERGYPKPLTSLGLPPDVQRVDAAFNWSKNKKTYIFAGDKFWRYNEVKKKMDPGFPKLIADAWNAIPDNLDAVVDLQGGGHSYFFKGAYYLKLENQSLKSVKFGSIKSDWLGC
Procedure: (§1) In this example, the peptides library was subjected to cleavage screening by biological matrices, i.e., tumor conditioned media (TCM). The cleavage of the peptides library by plasma was performed for comparison. Each peptide in the library includes a fluorescent mark at one end of its sequence and a quencher on the other end of the sequence. Upon cleavage of the peptide, the quencher is separated from the fluorescent mark, thereby releasing the fluorescent mark. The peptide substrates with the highest ratio of (initial rate of cleavage by tumor conditioned media (TCM) - initial rate of cleavage by plasma) in pmol/min, from cancer patients were identified.
(§2) The peptides with high ratio of initial rate of cleavage by tumor conditioned media (TCM) to initial rate of cleavage by plasma were further screened using recombinant proteases. The peptide substrates that have high initial rates (uM/h) of cleavage by recombinant proteases were identified (Table 4).

MMP-14 = MMP-14 (Homo sapiens, UniProt P50281); assay: Cleavage by recombinant protease MMP-14; type: biochemical; settings: initial rate, recombinant MMP-14
Procedure: as §1, §2

CatB = CatB (Homo sapiens, UniProt P07858); assay: Cleavage by recombinant protease Cathepsin B; type: biochemical; settings: initial rate
Procedure: as §1, §2

MMP-7 = target: T2, MMP-7 (Homo sapiens, UniProt P09237); assay: Cleavage by recombinant protease MMP-7; type: biochemical; settings: initial rate, recombinant MMP-7
T2 sequence (P09237 95-267): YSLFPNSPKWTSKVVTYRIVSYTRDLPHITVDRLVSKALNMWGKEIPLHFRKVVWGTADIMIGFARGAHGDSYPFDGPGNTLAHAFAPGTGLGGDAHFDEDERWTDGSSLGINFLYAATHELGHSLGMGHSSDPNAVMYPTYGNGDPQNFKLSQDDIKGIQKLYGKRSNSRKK
Procedure: as §1, §2

MMP-10 = MMP-10 (Homo sapiens, UniProt P09238); assay: Cleavage by recombinant protease MMP-10; type: biochemical; settings: initial rate, recombinant MMP-10
MMP-10, sequence (P09238 99-476): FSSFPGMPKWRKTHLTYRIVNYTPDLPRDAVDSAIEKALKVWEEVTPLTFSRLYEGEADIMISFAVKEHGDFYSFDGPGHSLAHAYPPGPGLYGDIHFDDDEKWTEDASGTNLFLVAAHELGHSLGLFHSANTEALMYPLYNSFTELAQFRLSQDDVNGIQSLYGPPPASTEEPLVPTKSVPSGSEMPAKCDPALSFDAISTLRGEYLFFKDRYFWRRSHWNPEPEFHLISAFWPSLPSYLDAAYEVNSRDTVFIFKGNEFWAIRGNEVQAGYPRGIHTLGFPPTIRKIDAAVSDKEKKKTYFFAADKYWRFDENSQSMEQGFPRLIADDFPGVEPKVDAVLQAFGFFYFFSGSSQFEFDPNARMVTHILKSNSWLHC
Procedure: as §1, §2

[1] = system: H&N tumor conditioned media (TCM) and plasma; assay: Fluorescence-quencher peptide cleavage screening, H&N tumor conditioned media versus plasma; type: biochemical, human; settings: Head and Neck cancer patients; fluorophore/quencher-labelled peptide
Procedure: as §1

MMP-8 = MMP-8 (Homo sapiens, UniProt P22894); assay: Cleavage by recombinant protease MMP-8; type: biochemical; settings: initial rate, recombinant MMP-8
MMP-8, sequence (P22894 101-467): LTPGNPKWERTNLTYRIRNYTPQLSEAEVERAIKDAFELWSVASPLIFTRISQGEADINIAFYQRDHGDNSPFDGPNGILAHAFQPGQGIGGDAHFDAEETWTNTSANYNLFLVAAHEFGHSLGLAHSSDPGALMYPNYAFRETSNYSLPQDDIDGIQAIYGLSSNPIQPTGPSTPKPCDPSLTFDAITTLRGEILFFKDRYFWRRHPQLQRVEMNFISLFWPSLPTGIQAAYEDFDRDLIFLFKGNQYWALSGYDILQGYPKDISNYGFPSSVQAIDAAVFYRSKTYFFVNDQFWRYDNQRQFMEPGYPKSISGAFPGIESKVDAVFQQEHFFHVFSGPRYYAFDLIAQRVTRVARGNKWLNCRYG
Procedure: as §1, §2

[2] = system: RCC tumor conditioned media (TCM) and plasma; assay: Fluorescence-quencher peptide cleavage screening, RCC tumor conditioned media versus plasma; type: biochemical, human; settings: RCC patients; fluorophore/quencher-labelled peptide
Procedure: as §1

MMP-1 = target: T3, MMP-1 (Homo sapiens, UniProt P03956); assay: Cleavage by recombinant protease MMP-1; type: biochemical; settings: initial rate, recombinant MMP-1
T3 sequence (P03956 100-469): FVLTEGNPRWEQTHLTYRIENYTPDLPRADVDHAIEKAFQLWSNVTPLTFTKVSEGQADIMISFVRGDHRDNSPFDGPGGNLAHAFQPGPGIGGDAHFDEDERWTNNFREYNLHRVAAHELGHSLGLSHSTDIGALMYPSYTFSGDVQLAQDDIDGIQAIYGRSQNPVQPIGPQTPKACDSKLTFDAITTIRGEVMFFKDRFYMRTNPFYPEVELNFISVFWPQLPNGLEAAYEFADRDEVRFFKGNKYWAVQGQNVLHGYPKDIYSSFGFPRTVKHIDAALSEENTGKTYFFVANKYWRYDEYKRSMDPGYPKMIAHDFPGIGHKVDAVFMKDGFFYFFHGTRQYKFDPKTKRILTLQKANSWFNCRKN
Procedure: as §1, §2

MMP-9 = MMP-9 (Homo sapiens, UniProt P14780); assay: Cleavage by recombinant protease MMP-9; type: biochemical; settings: initial rate, recombinant MMP-9
MMP-9, sequence (P14780 94-707): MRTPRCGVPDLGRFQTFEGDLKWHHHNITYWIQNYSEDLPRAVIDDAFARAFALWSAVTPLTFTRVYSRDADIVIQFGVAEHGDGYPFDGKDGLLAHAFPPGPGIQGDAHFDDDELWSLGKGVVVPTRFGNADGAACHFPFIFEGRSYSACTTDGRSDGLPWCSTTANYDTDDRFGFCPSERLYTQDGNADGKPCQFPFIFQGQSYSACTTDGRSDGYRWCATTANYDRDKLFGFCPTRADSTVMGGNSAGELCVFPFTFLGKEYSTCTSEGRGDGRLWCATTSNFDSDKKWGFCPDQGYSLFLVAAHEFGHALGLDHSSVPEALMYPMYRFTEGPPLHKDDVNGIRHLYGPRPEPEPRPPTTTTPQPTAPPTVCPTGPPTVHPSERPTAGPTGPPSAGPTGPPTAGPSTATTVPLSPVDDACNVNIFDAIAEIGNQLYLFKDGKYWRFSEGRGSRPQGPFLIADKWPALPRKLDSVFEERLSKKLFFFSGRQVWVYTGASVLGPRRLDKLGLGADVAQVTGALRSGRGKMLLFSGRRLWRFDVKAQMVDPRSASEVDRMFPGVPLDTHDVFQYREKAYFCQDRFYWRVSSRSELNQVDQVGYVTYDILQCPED
Procedure: as §1, §2

[3] = system: 'NAT' (Normal Adjacent Tissue) culture supernatant; assay: Cleavage of synthetic peptides in NAT culture supernatant (MSP-MS); type: biochemical; settings: for Earliest cleaved time point -NAT: NAT culture supernatant, MSP-MS; for NAT + CFZ: cleavage in NAT culture supernatant, carfilzomib (CFZ) in the incubation media, given as fraction x/5
Procedure: (§3) Sequences comprising cleavage peptides […] (SEQ ID NO: 1) or […] (SEQ ID NO:2) (shown in bold below) were incubated in either ‘NAT’ (Normal Adjacent Tissue) or ‘RCC’ (Renal Cell Carcinoma) culture supernatants, to test the specificity of each peptide’s cleavage. Carfilzomib (CFZ) is also included in the incubation media as an inhibitor of proteosome, to inhibit false positive cleavage.
(§4) To this end, peptide sequencing by mass spectrometry was used to identify cleaved fragments produced for the synthetic peptides shown in the table below, using a published technique called multiplexed substrate profiling by mass spectrometry (MSP-MS) (O’Donoghue A.J. et al. Nat Methods. 2012 Nov;9(11):1095-100.) Cleavages were monitored in these reactions over time, and the peptides found to be cleaved in the earliest time points were deemed to be most sensitive to proteolytic activity in the conditioned media samples.

[4] = system: 'RCC' (Renal Cell Carcinoma) culture supernatant; assay: Cleavage of synthetic peptides in RCC culture supernatant (MSP-MS); type: biochemical; settings: for Earliest cleaved time point -RCC: RCC culture supernatant, MSP-MS; for RCC + CFZ: cleavage in RCC culture supernatant, carfilzomib (CFZ) in the incubation media, given as fraction x/5
Procedure: as §3, §4

[5] = patients who received a 5-minute intravenous (IV) infusion; product label; cited from earlier work

Substance	Rates of cleavage by recombinant proteases, MMP-2 (MMP-2) [µM/h]	Rates of cleavage by recombinant proteases, MMP-14 (MMP-14) [µM/h]	Rates of cleavage by recombinant proteases, CatB (CatB) [µM/h]	Rates of cleavage by recombinant proteases, MMP-7 (MMP-7) [µM/h]	Rates of cleavage by recombinant proteases, MMP-10 (MMP-10) [µM/h]	Rates of cleavage by recombinant proteases, MMP-8 (MMP-8) [µM/h]	Rates of cleavage by recombinant proteases, MMP-1 (MMP-1) [µM/h]	Rates of cleavage by recombinant proteases, MMP-9 (MMP-9) [µM/h]	Initial cleavage rate difference, tumor conditioned media minus plasma [1] [pmol/min]	Initial cleavage rate in tumor conditioned media minus initial cleavage rate in plasma [2] [pmol/min]	Earliest cleaved time point -NAT [3] [min]	NAT + CFZ [3]	Earliest cleaved time point -RCC [4] [min]	RCC + CFZ [4]	half-life [5] [h]
PVSLRSGS [proteolytically cleavable peptide (CP), protease substrate]	1.9	0.0	0.0	0.2	0.0	0.1	0.0	6.5	0.0	0.2					
PANLVAPDP [proteolytically cleavable peptide (CP), protease substrate]	31.2	0.7	0.0	2.5	1.8	7.2	2.7	8.8	0.4	0.1					
TQKPLGLS [proteolytically cleavable peptide (CP), protease substrate]	11.8	0.1	0.3	1.8	0.0	0.1	0.0	0.3	0.2	0.2					
RVGPVSL*R*SGSGKI (RVGPVSLRSGSGKI) [Alu-XT-019, * indicates cleavage site]											5	1/5	15	5/5	
RQGGM*PKDLYHA*SAKQ (RQGGMPKDLYHASAKQ) [Alu-XT-091, * indicates cleavage site]											5	1/5	15	5/5	
aldesleukin															1.42

Further lines, with some results ahead:

Rates of cleavage by recombinant proteases, MMP-2 (MMP-2) [µM/h]	Rates of cleavage by recombinant proteases, MMP-14 (MMP-14) [µM/h]	Rates of cleavage by recombinant proteases, CatB (CatB) [µM/h]	Rates of cleavage by recombinant proteases, MMP-7 (MMP-7) [µM/h]	Rates of cleavage by recombinant proteases, MMP-10 (MMP-10) [µM/h]	Rates of cleavage by recombinant proteases, MMP-8 (MMP-8) [µM/h]	Rates of cleavage by recombinant proteases, MMP-1 (MMP-1) [µM/h]	Rates of cleavage by recombinant proteases, MMP-9 (MMP-9) [µM/h]	Substance	Initial cleavage rate difference, tumor conditioned media minus plasma [1] [pmol/min]	Initial cleavage rate in tumor conditioned media minus initial cleavage rate in plasma [2] [pmol/min]	Earliest cleaved time point -NAT [3] [min]	NAT + CFZ [3]	Earliest cleaved time point -RCC [4] [min]	RCC + CFZ [4]	half-life [5] [h]
0.0	0.0	1.9	0.0	0.0	0.0	0.0	0.0	IVGRPRHQGV [proteolytically cleavable peptide (CP), protease substrate]	0.1	0.6					
29.6	2.1	1.0	2.4	1.6	0.5	0.0	1.8	APAGLIVPYN [proteolytically cleavable peptide (CP), protease substrate]	0.1	0.2					
1.1	0.0	0.3	0.2	0.0	0.2	0.1	0.2	RPLALWRS [proteolytically cleavable peptide (CP), protease substrate]	0.0	0.5					
0.0	0.0	1.9	0.0	0.0	0.0	0.0	0.0	RSKYLATA [proteolytically cleavable peptide (CP), protease substrate]	0.0	0.3					
